Results: the supplement of paper PMC10065799, “High-throughput profiling of sequence recognition by tyrosine kinases and SH2 domains using bacterial peptide display” (eLife, 2023)
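Further: 11-residue human phosphosite peptides and single-mutation variants displayed on the E. coli surface, counted by deep sequencing, each peptide's frequency after selection divided by its frequency in the unselected input library; frequency after pTyr selection over input frequency; kinase dosed for 20-30% of maximal phosphorylation in three min.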

The sequences below were run on Fer (mouse) (assay: phosphorylation enrichment, bacterial display (enrichment ratio); higher = better substrate or ligand; peptides without Tyr show the background).
In the case of KNSFKYFMSDD [ATRX_Y203_C200S_YF], the phosphorylation enrichment is reported as 0.412. In the case of GIPIQYPIISE [NOG_Y222_W217G], the phosphorylation enrichment is reported as 0.467. TYVKSYTIHYS [F5_Y2153_M2148T] gave a phosphorylation enrichment of 0.568. With SKNSKYNAEST [PSEN1_Y315] the phosphorylation enrichment was 0.396. DYYDLYGGEKF [PTPN11_Y66] gave a phosphorylation enrichment of 1.61. In the case of MSGDVYSTDYY [NTRK2_Y702_R699G], the phosphorylation enrichment is reported as 0.863. TKDTFHKQPMF [GBA_Y451_Y451H] was tested, and the phosphorylation enrichment was 0.249. With FADIAYNFRHG [PAH_Y166_YF] the phosphorylation enrichment was 0.396. PLYRKYWPNHI [GREB1L_Y1560] showed a phosphorylation enrichment of 0.84. Work on ENRKFYMDLKE [PURA_Y156_YF] yielded a phosphorylation enrichment of 0.487. In the case of LNPLIYTLKNA [OR4C46_Y285], the phosphorylation enrichment is reported as 0.545. HRGYLYLAIEY [TEK_Y899] was tested, and the phosphorylation enrichment was 0.432. Sequence CSTIHYNFMCN [TP53_Y234_T230S_YF] has a phosphorylation enrichment of 0.423. SWSTSYSGYRC [NKAPL_Y91_Y96C] gave a phosphorylation enrichment of 0.532. RGDTVYTVNCM [KBTBD13_Y404_R408C] showed a phosphorylation enrichment of 0.547. YPLELYERVRM [PRKCG_Y312] was tested, and the phosphorylation enrichment was 3.71. In the case of SVEELYAIPPD [PEAK1_Y797], the phosphorylation enrichment is reported as 5.23. Sequence ATHRSYDSDNP [MMUT_Y146_G145S] has a phosphorylation enrichment of 0.422. Sequence SSWPDYVRPLP [HSPB1_Y54_G53D] has a phosphorylation enrichment of 0.54. Work on NTGDFYDLFGG [PTPN11_Y63_YF] yielded a phosphorylation enrichment of 1.82. For QMQLKYSQSDL [SMC1A_Y714_R711Q], the phosphorylation enrichment was 0.621. DENCFYTRAAS [RPS19_Y54_W52C] gave a phosphorylation enrichment of 0.485. LHSEAYLKFNE [PBRM1_Y1610_I1614N_YF] gave a phosphorylation enrichment of 0.493. ARRHPYFYAPE [ALB_Y172] showed a phosphorylation enrichment of 0.58. In the case of TEFSQYMRRKN [MAX_Y73_I71S_YF], the phosphorylation enrichment is reported as 0.516. LDFPEYNGVDR [CASQ1_Y43_D44N] showed a phosphorylation enrichment of 1. ERKQTYGSCRK [LACTB_Y473] showed a phosphorylation enrichment of 0.319. For EDNPEYMRLRN [ADD2_Y31_D28N], the phosphorylation enrichment was 0.447. In the case of GNLQENLTRHV [TGFBR2_Y336_Y336N], the phosphorylation enrichment is reported as 0.366.

Each sequence was assayed against MERTK (UniProt Q12866) in the same assay as above.
Sequence of MERTK (Q12866 whole entry, looked up): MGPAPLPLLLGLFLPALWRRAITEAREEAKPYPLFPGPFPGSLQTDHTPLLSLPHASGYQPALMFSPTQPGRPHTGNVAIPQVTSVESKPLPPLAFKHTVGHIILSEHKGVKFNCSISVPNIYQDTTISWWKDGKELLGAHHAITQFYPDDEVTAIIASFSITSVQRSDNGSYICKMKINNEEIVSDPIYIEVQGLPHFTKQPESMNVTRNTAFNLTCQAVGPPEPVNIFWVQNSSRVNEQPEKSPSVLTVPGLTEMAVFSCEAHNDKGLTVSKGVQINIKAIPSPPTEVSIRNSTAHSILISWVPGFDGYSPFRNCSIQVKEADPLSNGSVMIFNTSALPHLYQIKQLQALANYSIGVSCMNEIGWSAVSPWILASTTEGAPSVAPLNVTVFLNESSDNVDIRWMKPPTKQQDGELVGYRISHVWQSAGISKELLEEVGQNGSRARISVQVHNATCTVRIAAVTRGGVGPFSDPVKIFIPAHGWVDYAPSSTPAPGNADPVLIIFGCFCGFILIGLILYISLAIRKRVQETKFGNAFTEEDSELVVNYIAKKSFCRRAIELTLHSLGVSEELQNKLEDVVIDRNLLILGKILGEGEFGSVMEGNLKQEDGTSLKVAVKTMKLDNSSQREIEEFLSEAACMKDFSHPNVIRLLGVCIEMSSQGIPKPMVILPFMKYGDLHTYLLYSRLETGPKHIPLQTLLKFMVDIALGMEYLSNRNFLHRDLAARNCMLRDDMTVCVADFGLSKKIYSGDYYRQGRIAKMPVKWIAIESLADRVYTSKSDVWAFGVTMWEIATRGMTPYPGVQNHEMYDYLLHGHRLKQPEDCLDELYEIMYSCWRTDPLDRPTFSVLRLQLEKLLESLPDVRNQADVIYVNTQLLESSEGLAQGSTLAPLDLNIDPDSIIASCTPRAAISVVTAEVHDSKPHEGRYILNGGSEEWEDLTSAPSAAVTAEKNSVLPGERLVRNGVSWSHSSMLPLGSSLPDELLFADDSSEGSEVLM
Sequence KNSFKYFMSDD [ATRX_Y203_C200S_YF] has a phosphorylation enrichment of 0.418. Work on GIPIQYPIISE [NOG_Y222_W217G] yielded a phosphorylation enrichment of 0.447. For TYVKSYTIHYS [F5_Y2153_M2148T], the phosphorylation enrichment was 0.483. With SKNSKYNAEST [PSEN1_Y315] the phosphorylation enrichment was 0.35. For DYYDLYGGEKF [PTPN11_Y66], the phosphorylation enrichment was 3.7. Work on MSGDVYSTDYY [NTRK2_Y702_R699G] yielded a phosphorylation enrichment of 6.54. Sequence TKDTFHKQPMF [GBA_Y451_Y451H] has a phosphorylation enrichment of 0.403. For FADIAYNFRHG [PAH_Y166_YF], the phosphorylation enrichment was 0.428. For PLYRKYWPNHI [GREB1L_Y1560], the phosphorylation enrichment was 0.708. Work on ENRKFYMDLKE [PURA_Y156_YF] yielded a phosphorylation enrichment of 0.432. For LNPLIYTLKNA [OR4C46_Y285], the phosphorylation enrichment was 0.463. With HRGYLYLAIEY [TEK_Y899] the phosphorylation enrichment was 0.486. With CSTIHYNFMCN [TP53_Y234_T230S_YF] the phosphorylation enrichment was 0.385. SWSTSYSGYRC [NKAPL_Y91_Y96C] showed a phosphorylation enrichment of 0.443. For RGDTVYTVNCM [KBTBD13_Y404_R408C], the phosphorylation enrichment was 0.734. YPLELYERVRM [PRKCG_Y312] gave a phosphorylation enrichment of 0.432. Work on SVEELYAIPPD [PEAK1_Y797] yielded a phosphorylation enrichment of 9.81. With ATHRSYDSDNP [MMUT_Y146_G145S] the phosphorylation enrichment was 0.57. SSWPDYVRPLP [HSPB1_Y54_G53D] was tested, and the phosphorylation enrichment was 0.437. For NTGDFYDLFGG [PTPN11_Y63_YF], the phosphorylation enrichment was 2.97. With QMQLKYSQSDL [SMC1A_Y714_R711Q] the phosphorylation enrichment was 0.69. DENCFYTRAAS [RPS19_Y54_W52C] showed a phosphorylation enrichment of 0.461. LHSEAYLKFNE [PBRM1_Y1610_I1614N_YF] gave a phosphorylation enrichment of 0.737. For ARRHPYFYAPE [ALB_Y172], the phosphorylation enrichment was 0.893. Work on TEFSQYMRRKN [MAX_Y73_I71S_YF] yielded a phosphorylation enrichment of 0.727. LDFPEYNGVDR [CASQ1_Y43_D44N] was tested, and the phosphorylation enrichment was 2.17. ERKQTYGSCRK [LACTB_Y473] showed a phosphorylation enrichment of 0.359. For EDNPEYMRLRN [ADD2_Y31_D28N], the phosphorylation enrichment was 0.408. Sequence GNLQENLTRHV [TGFBR2_Y336_Y336N] has a phosphorylation enrichment of 0.368.

Each sequence was assayed against Jak2 (UniProt O60674) in the same assay as above.
Sequence of Jak2 (O60674 whole entry, looked up): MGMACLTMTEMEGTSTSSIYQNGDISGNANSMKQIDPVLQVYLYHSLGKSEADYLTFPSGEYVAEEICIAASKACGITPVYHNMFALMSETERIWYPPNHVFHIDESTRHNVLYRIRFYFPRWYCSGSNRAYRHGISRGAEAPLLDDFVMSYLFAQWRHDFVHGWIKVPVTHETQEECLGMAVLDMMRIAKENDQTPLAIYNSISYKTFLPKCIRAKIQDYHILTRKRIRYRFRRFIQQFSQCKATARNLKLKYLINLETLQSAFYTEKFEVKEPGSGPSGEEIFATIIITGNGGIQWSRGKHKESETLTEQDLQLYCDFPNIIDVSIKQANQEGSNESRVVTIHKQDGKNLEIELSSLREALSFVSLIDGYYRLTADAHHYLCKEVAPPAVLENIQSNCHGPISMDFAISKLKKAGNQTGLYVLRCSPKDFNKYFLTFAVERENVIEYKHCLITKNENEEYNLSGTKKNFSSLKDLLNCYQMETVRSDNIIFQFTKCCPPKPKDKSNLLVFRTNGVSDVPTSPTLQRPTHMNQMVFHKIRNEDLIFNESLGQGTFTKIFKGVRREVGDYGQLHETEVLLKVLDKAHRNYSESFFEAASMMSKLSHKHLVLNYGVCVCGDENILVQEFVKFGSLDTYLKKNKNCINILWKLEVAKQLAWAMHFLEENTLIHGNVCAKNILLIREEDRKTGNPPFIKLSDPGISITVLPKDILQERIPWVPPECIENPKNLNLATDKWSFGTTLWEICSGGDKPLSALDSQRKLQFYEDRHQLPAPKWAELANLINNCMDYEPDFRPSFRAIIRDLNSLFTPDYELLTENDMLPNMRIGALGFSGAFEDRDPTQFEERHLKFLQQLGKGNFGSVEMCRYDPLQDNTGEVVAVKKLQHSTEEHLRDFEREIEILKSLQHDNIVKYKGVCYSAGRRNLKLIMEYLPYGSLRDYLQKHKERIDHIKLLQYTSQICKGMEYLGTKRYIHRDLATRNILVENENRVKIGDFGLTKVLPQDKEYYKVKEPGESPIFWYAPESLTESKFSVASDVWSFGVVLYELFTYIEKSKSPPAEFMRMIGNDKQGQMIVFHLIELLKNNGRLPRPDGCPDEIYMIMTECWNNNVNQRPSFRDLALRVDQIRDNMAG
Sequence KNSFKYFMSDD [ATRX_Y203_C200S_YF] has a phosphorylation enrichment of 0.869. Work on GIPIQYPIISE [NOG_Y222_W217G] yielded a phosphorylation enrichment of 1.02. TYVKSYTIHYS [F5_Y2153_M2148T] showed a phosphorylation enrichment of 0.633. Work on SKNSKYNAEST [PSEN1_Y315] yielded a phosphorylation enrichment of 0.673. For DYYDLYGGEKF [PTPN11_Y66], the phosphorylation enrichment was 2.7. With MSGDVYSTDYY [NTRK2_Y702_R699G] the phosphorylation enrichment was 1.05. For TKDTFHKQPMF [GBA_Y451_Y451H], the phosphorylation enrichment was 0.468. In the case of FADIAYNFRHG [PAH_Y166_YF], the phosphorylation enrichment is reported as 0.734. PLYRKYWPNHI [GREB1L_Y1560] showed a phosphorylation enrichment of 0.95. With ENRKFYMDLKE [PURA_Y156_YF] the phosphorylation enrichment was 0.963. LNPLIYTLKNA [OR4C46_Y285] was tested, and the phosphorylation enrichment was 0.343. In the case of HRGYLYLAIEY [TEK_Y899], the phosphorylation enrichment is reported as 1.03. CSTIHYNFMCN [TP53_Y234_T230S_YF] showed a phosphorylation enrichment of 0.573. SWSTSYSGYRC [NKAPL_Y91_Y96C] was tested, and the phosphorylation enrichment was 0.98. In the case of RGDTVYTVNCM [KBTBD13_Y404_R408C], the phosphorylation enrichment is reported as 0.844. For YPLELYERVRM [PRKCG_Y312], the phosphorylation enrichment was 1.25. SVEELYAIPPD [PEAK1_Y797] was tested, and the phosphorylation enrichment was 1.78. ATHRSYDSDNP [MMUT_Y146_G145S] gave a phosphorylation enrichment of 0.543. For SSWPDYVRPLP [HSPB1_Y54_G53D], the phosphorylation enrichment was 7.67. In the case of NTGDFYDLFGG [PTPN11_Y63_YF], the phosphorylation enrichment is reported as 0.985. QMQLKYSQSDL [SMC1A_Y714_R711Q] was tested, and the phosphorylation enrichment was 0.569. For DENCFYTRAAS [RPS19_Y54_W52C], the phosphorylation enrichment was 0.841. With LHSEAYLKFNE [PBRM1_Y1610_I1614N_YF] the phosphorylation enrichment was 1.06. With ARRHPYFYAPE [ALB_Y172] the phosphorylation enrichment was 0.8. TEFSQYMRRKN [MAX_Y73_I71S_YF] was tested, and the phosphorylation enrichment was 0.727. Sequence LDFPEYNGVDR [CASQ1_Y43_D44N] has a phosphorylation enrichment of 3.51. In the case of ERKQTYGSCRK [LACTB_Y473], the phosphorylation enrichment is reported as 0.392. In the case of EDNPEYMRLRN [ADD2_Y31_D28N], the phosphorylation enrichment is reported as 1.05. GNLQENLTRHV [TGFBR2_Y336_Y336N] gave a phosphorylation enrichment of 0.447.

The sequences below were run against EPHB1 (UniProt P54762) in the same assay as above.
Sequence of EPHB1 (P54762 whole entry, looked up): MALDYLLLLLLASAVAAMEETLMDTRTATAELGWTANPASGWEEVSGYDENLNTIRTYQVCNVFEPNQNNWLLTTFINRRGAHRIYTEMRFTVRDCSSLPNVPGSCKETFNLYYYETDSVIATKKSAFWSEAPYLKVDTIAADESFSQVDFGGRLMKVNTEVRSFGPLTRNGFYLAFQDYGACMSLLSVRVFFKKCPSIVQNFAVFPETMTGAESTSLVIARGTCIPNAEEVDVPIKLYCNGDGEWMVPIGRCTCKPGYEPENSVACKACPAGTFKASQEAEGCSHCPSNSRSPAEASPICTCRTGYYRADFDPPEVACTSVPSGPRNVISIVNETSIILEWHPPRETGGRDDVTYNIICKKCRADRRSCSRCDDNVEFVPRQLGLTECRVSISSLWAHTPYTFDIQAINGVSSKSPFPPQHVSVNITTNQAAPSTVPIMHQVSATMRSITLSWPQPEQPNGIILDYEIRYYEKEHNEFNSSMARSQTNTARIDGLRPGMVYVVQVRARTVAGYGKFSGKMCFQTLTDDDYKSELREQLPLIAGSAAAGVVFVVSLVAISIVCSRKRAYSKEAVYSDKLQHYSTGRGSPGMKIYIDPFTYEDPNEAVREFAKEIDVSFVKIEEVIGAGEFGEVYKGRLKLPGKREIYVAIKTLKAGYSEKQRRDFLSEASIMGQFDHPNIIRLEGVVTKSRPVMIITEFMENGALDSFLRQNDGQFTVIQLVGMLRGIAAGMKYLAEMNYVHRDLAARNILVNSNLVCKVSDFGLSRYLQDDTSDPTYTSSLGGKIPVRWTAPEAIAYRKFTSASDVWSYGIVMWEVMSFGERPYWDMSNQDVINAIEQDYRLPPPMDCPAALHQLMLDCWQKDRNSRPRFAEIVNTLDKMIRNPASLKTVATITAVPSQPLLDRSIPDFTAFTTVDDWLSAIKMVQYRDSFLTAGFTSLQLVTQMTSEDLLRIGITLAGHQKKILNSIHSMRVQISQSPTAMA
Sequence KNSFKYFMSDD [ATRX_Y203_C200S_YF] has a phosphorylation enrichment of 0.475. Work on GIPIQYPIISE [NOG_Y222_W217G] yielded a phosphorylation enrichment of 0.55. In the case of TYVKSYTIHYS [F5_Y2153_M2148T], the phosphorylation enrichment is reported as 0.594. In the case of SKNSKYNAEST [PSEN1_Y315], the phosphorylation enrichment is reported as 0.309. DYYDLYGGEKF [PTPN11_Y66] gave a phosphorylation enrichment of 6.42. In the case of MSGDVYSTDYY [NTRK2_Y702_R699G], the phosphorylation enrichment is reported as 1.58. With TKDTFHKQPMF [GBA_Y451_Y451H] the phosphorylation enrichment was 0.29. Sequence FADIAYNFRHG [PAH_Y166_YF] has a phosphorylation enrichment of 0.522. PLYRKYWPNHI [GREB1L_Y1560] gave a phosphorylation enrichment of 0.813. ENRKFYMDLKE [PURA_Y156_YF] was tested, and the phosphorylation enrichment was 0.492. For LNPLIYTLKNA [OR4C46_Y285], the phosphorylation enrichment was 0.762. HRGYLYLAIEY [TEK_Y899] was tested, and the phosphorylation enrichment was 0.558. For CSTIHYNFMCN [TP53_Y234_T230S_YF], the phosphorylation enrichment was 0.369. SWSTSYSGYRC [NKAPL_Y91_Y96C] gave a phosphorylation enrichment of 0.551. RGDTVYTVNCM [KBTBD13_Y404_R408C] gave a phosphorylation enrichment of 0.692. Sequence YPLELYERVRM [PRKCG_Y312] has a phosphorylation enrichment of 2.02. In the case of SVEELYAIPPD [PEAK1_Y797], the phosphorylation enrichment is reported as 3.15. ATHRSYDSDNP [MMUT_Y146_G145S] gave a phosphorylation enrichment of 0.346. SSWPDYVRPLP [HSPB1_Y54_G53D] was tested, and the phosphorylation enrichment was 1.57. For NTGDFYDLFGG [PTPN11_Y63_YF], the phosphorylation enrichment was 0.587. QMQLKYSQSDL [SMC1A_Y714_R711Q] gave a phosphorylation enrichment of 0.68. With DENCFYTRAAS [RPS19_Y54_W52C] the phosphorylation enrichment was 0.587. Work on LHSEAYLKFNE [PBRM1_Y1610_I1614N_YF] yielded a phosphorylation enrichment of 0.438. ARRHPYFYAPE [ALB_Y172] gave a phosphorylation enrichment of 0.488. TEFSQYMRRKN [MAX_Y73_I71S_YF] gave a phosphorylation enrichment of 0.538. Work on LDFPEYNGVDR [CASQ1_Y43_D44N] yielded a phosphorylation enrichment of 1.09. Work on ERKQTYGSCRK [LACTB_Y473] yielded a phosphorylation enrichment of 0.343. For EDNPEYMRLRN [ADD2_Y31_D28N], the phosphorylation enrichment was 0.518. GNLQENLTRHV [TGFBR2_Y336_Y336N] was tested, and the phosphorylation enrichment was 0.478.
